Laboratory results taken from the Immune Epitope Database (IEDB).

Tests used:
Details in all cases: source organism: Influenza A virus (A/Puerto Rico/8/1934(H1N1))
HLA-A*02:01 = assay: IEDB peptide-MHC binding, purified MHC/competitive/radioactivity; ≥ and ≤ were set here for values at or beyond the usual limits of such assays
HLA-B*07:02 = assay: as above
HLA-A*11:01 = assay: as above
HLA-A*31:01 = assay: as above
HLA-A*03:01 = assay: as above
HLA-A*68:01 [1] = assay: IEDB peptide-MHC binding, purified MHC/competitive/radioactivity; filed as Kd, often an IC50 or EC50 that approximates it; ≥ and ≤ were set here for values at or beyond the usual limits of such assays
HLA-A*68:01 [2] = assay: IEDB peptide-MHC binding, purified MHC/competitive/radioactivity; ≥ and ≤ were set here for values at or beyond the usual limits of such assays
HLA-A*33:01 [3] = assay: IEDB peptide-MHC binding, purified MHC/competitive/radioactivity; filed as Kd, often an IC50 or EC50 that approximates it; ≥ and ≤ were set here for values at or beyond the usual limits of such assays
HLA-A*33:01 [4] = assay: IEDB peptide-MHC binding, purified MHC/competitive/radioactivity; ≥ and ≤ were set here for values at or beyond the usual limits of such assays

Sequence | IC50 (HLA-A*02:01) [nM] | IC50 (HLA-B*07:02) [nM] | also measured
ALKMTMASV | 225 | – | –
APPKQSRMQF | – | 24 | –
APSPYNSRF | – | 19.2 | –
AVGKEFNKLEK | – | – | IC50 (HLA-A*11:01): 130 nM
CIYRRFKYFLK | – | – | IC50 (HLA-A*11:01): 231 nM
CLLQSLQQI | 159 | – | –
CPKYVRSAKL | – | 344 | –
FLWHVRKRV | 204 | – | –
FPNEVGARIL | – | 365 | –
FPSSSYRRPV | – | 20.9 | –
GIAPLQLGK | – | – | IC50 (HLA-A*31:01): 281 nM; IC50 (HLA-A*03:01): 18 nM; IC50 (HLA-A*11:01): 30 nM; Kd (HLA-A*68:01 [1]): 1180 nM
GIHHPSNSK | – | – | IC50 (HLA-A*11:01): 429 nM
GMFNMLSTV | 28 | – | –
GMGWLTIGI | 133 | – | –
GPALSINEL | – | 119 | –
GPDNGAVAVL | – | 498 | –
GPPCSQRSKF | – | 270 | –
GPVHFRNQV | – | 71.4 | –
GTHPSSSAGLK | – | – | IC50 (HLA-A*11:01): 94 nM
ILWILDRLFFK | – | – | IC50 (HLA-A*11:01): 21 nM

Sequence | IC50 (HLA-A*02:01) [nM] | IC50 (HLA-B*07:02) [nM] | also measured
IPKQKVAGPL | – | 42.4 | –
ITNKVNSVIEK | – | – | IC50 (HLA-A*11:01): 90 nM
KLESMGIYQI | 434 | – | –
KMNIQFTAV | 150 | – | –
KTRPILSPLTK | – | – | IC50 (HLA-A*11:01): 120 nM
LILRGSVAHK | – | – | IC50 (HLA-A*11:01): 188 nM
LLLEVEQEI | 213 | – | –
LLTEVETPI | 24 | – | –
LMDALKLSI | 40 | – | –
LPACVYGPAV | – | 220 | –
LPRRSGAAGA | – | 76.3 | –
LPSLPGHTA | – | 41 | –
LPVRSWSYIV | – | 207 | –
MLSTVLGVSI | 252 | – | –
NIQFTAVGK | – | – | IC50 (HLA-A*11:01): 182 nM
NLYNIRNLHI | 61 | – | –
NPALRMKWM | – | 59.5 | –
NPRMFLAMI | – | 10.1 | –
RMNYYWTLLK | – | – | IC50 (HLA-A*11:01): 2.6 nM
RMQFSSFTV | 28 | – | –

Sequence | IC50 (HLA-A*02:01) [nM] | IC50 (HLA-B*07:02) [nM] | also measured
RPCFWVELI | – | 67.1 | –
RPWVSFDQNL | – | 397 | –
RTLDFHDSNVK | – | – | IC50 (HLA-A*68:01 [2]): 2290 nM; IC50 (HLA-A*31:01): 1500 nM; IC50 (HLA-A*03:01): 141 nM; IC50 (HLA-A*11:01): 50 nM; Kd (HLA-A*33:01 [3]): 6.3 µM
RVLSFIKGTK | – | – | IC50 (HLA-A*68:01 [2]): 471 nM; IC50 (HLA-A*31:01): 333 nM; IC50 (HLA-A*03:01): 13.8 nM; IC50 (HLA-A*33:01 [4]): 1320 nM; IC50 (HLA-A*11:01): 72 nM
SIIPSGPLK | – | – | IC50 (HLA-A*68:01 [2]): 108 nM; IC50 (HLA-A*31:01): 4290 nM; IC50 (HLA-A*03:01): 14 nM
SLLTEVETYV | 38 | – | –
SLPFQNIHPV | 96 | – | –
SMIEAESSV | 160 | – | –
SPGMMMGMF | – | 137 | –
SPKGVEESSI | – | 215 | –
SPYNSRFESV | – | 41.4 | –
STDTVDTVLEK | – | – | IC50 (HLA-A*11:01): 90 nM
SVRNGTYDYPK | – | – | IC50 (HLA-A*11:01): 43 nM
TMVMELVRMIK | – | – | IC50 (HLA-A*31:01): 1290 nM; IC50 (HLA-A*03:01): 124 nM; IC50 (HLA-A*11:01): 194 nM
TPLGAINSSL | – | 34.9 | –
VLLVSLGAI | 290 | – | –
VPASRYLTDM | – | 13.6 | –
WILDRLFFK | – | – | IC50 (HLA-A*11:01): 7.6 nM
WMMAMKYPI | 72 | – | –
YPKLKNSYV | – | 176 | –
